Holding throughout (assay type): biochemical
Data set [1] concerns the target T1, Lactobacillus leichmannii nucleoside deoxyribosyltransferase (NDT, SEQ ID NO:1) variant PDTT2, R13 Q91 G92 T93 S123 (F13R/E91Q/D92G/V93T/N123S), SEQ ID NO:10 (Lactobacillus leichmannii, UniProt Q9R5V5, D92G/E91Q/F13R/N123S/V93T).
T1 construct: made in house; host or cells: E. coli BLi5 (pET24a NDT plasmid)
T1 sequence (Q9R5V5 2-157 F13R/E91Q/D92G/V93T/N123S): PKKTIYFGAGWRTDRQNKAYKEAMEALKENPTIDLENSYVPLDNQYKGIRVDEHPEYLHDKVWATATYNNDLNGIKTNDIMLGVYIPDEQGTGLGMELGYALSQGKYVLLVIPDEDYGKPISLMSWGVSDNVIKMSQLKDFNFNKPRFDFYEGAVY
The experiment in a line: Kinetic parameters of PDT variants with deoxycytidine 5'-mono, -di and -triphosphate as donors and adenine as acceptor. The note with it: adenine acceptor. The protocol: (§1) The standard assay (“first protocol for enzyme assay”) for the different NDTs consisted of 5-15 μg of NDT in 50 mM MES buffer pH 6.0, dNxP (dNMP, or dNDP or dNTP) 3 mM and a base 1 mM in a total volume of 50 μL. Assays were incubated for 60 min at 37° C. The products of the reactions were analyzed each 7 min by Rapid resolution high performance liquid chromatography using a reverse-phase column (ZORBAX Eclipse XDB-C18 2.1*50 mm 1.8 μM) with a flow rate of 0.25 ml/min and a linear gradient of 1-12% CH3CN (2-25% CH3CN or 1-90% CH3CN) in 20 mM triethylammonium acetate, pH 7.5, buffer for 7 min. The low resolution mass spectra of the newly synthesized deoxyribonucleotides were obtained on an Agilent 1200 series LC/MS 6120 quadrupole system using an atmospheric electrospray ionization system.
(§2) This hypothesis was confirmed by monitoring the specific activity, in the presence of dCDP or dCTP as donor and adenine as acceptor (see table 2 above). The kinetic parameters were determined for the best variants with dCMP, dCDP and dCTP as substrates, at a concentration of A being fixed (see table 3 below).

In data set [2] the target is T2, Lactobacillus leichmannii nucleoside deoxyribosyltransferase (NDT, SEQ ID NO:1) variant PDTT1, R13 G92 T93 S123 K157 (F13R/D92G/V93T/N123S/Y157K), SEQ ID NO:9 (Lactobacillus leichmannii, UniProt Q9R5V5, D92G/F13R/N123S/V93T/Y157K).
T2 construct: homohexamer (108 kDa)
T2 sequence (Q9R5V5 1-157 F13R/D92G/V93T/N123S/Y157K): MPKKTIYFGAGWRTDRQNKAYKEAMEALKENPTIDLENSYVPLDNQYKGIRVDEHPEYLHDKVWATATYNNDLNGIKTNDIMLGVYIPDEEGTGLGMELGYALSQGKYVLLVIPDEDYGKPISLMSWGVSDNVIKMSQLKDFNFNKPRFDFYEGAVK
The data set is described as above. The note with it: adenine acceptor. The protocol: as §1, §2

Substrate in data set [3]: Nc1ccn([C@H]2C[C@H](O)[C@@H](COP(=O)(O)O)O2)c(=O)n1
Described as above. The note with it: 37.0 °C; for Km: adenine as acceptor, fixed. The protocol: as §1, §2

Substrate in data set [4]: Nc1ccn([C@H]2C[C@H](O)[C@@H](COP(=O)(O)OP(=O)(O)OP(=O)(O)O)O2)c(=O)n1
The description is as above. As to conditions: other: PDTT2; deoxyribose triphosphate transferase; 37.0 °C. The protocol:
as §1, §2

Substrate in data set [5]: Nc1ncnc2c1ncn2[C@H]1C[C@H](O)[C@@H](COP(=O)(O)OP(=O)(O)OP(=O)(O)O)O1
The experiment in a line: Spectrophotometric assay coupled to xanthine oxidase, dATP + C ⇄ dCTP + A. The note with it: other: PDTT2, 1 mM cytosine, 50 mM MES pH6.0, 37° C., pH 6.0. The protocol:
Further, the cinetic parameters of these mutant enzymes were analysed, using a specific spectrophotometric assay. Briefly, the assay consists in measuring the formation of the final product (2,8 dihydroxyadenine) of the reaction:
Briefly, the assay was performed using the coupling of two enzymes: the variant (PDTT2, PDTT4, PDTT5, PDTT6, or PDTT7) to be tested and xanthine oxidase (obtained from Roche). The reaction mixture contained varying concentrations of dATP, 1 mM cytosine in a 50 mM MES buffer pH6.0 at 37° C. The reaction was initiated by adding 30 units of the purified variant to be tested and xanthine oxidase (Roche). The released adenine was then oxidized in 2,8-dihydroxyadenine which absorbs at 301 nm. The formation (i.e. concentration) of 2,8 dihydroxyadenine was measured by spectrophotometry.

For orientation: kcat means the maximal rate divided by the concentration of active sites. Usually Km stands for the substrate concentration at which the rate is half of its maximum. In general, kcat/Km refers to the turnover number divided by the Michaelis constant.

With `Nc1ccn([C@H]2C[C@H](O)[C@@H](COP(=O)(O)O)O2)c(=O)n1` [dCMP], the kcat in data set [1] (PDTT2, second line of the table) was determined as 0.1 s⁻¹; in data set [1] (PDTT2, third line of the table), 1.3 s⁻¹; in data set [2] (PDTT1, second line of the table), 0.08 s⁻¹; in data set [2] (PDTT1, third line of the table) it was 0.5 s⁻¹.

B1: Lactobacillus leichmannii nucleoside deoxyribosyltransferase (NDT, SEQ ID NO:1) variant PDTT2, R13 Q91 G92 T93 S123 (F13R/E91Q/D92G/V93T/N123S), SEQ ID NO:10 … (protein)
chain: PKKTIYFGAGWRTDRQNKAYKEAMEALKENPTIDLENSYVPLDNQYKGIRVDEHPEYLHDKVWATATYNNDLNGIKTNDIMLGVYIPDEQGTGLGMELGYALSQGKYVLLVIPDEDYGKPISLMSWGVSDNVIKMSQLKDFNFNKPRFDFYEGAVY
notes: made in house; host or cells: E. coli BLi5 (pET24a NDT plasmid)
In the case of B1, the kcat in data set [3] (other: PDTT2, first line, adenine acceptor, molecular mass of 108 kDa) was 0.9 s⁻¹. The Km stood at 6 mM in data set [3] (other: PDTT2, first line); 8.7 mM in data set [3] (other: PDTT2, second line of the table); 2 mM in data set [3] (other: PDTT2, third line of the table); 2 mM in data set [4]. The kcat/Km in data set [4] turned out to be 668 M⁻¹ s⁻¹.

B2: Lactobacillus leichmannii nucleoside deoxyribosyltransferase (NDT, SEQ ID NO:1) variant PDTT2, R13 Q91 G92 T93 S123 (F13R/E91Q/D92G/V93T/N123S), SEQ ID NO:10 … (protein)
chain: MPKKTIYFGAGWRTDRQNKAYKEAMEALKENPTIDLENSYVPLDNQYKGIRVDEHPEYLHDKVWATATYNNDLNGIKTNDIMLGVYIPDEQGTGLGMELGYALSQGKYVLLVIPDEDYGKPISLMSWGVSDNVIKMSQLKDFNFNKPRFDFYEGAVY
notes: as for B1
With B2, in data set [5], the Km is recorded as 6.1 mM, the kcat was found to be 12.6 s⁻¹ and the kcat/Km came out at 2000 M⁻¹ s⁻¹.

These data come from patent publication US9523084B2, “Phosphodeoxyribosyl transferase mutant enzymes and uses thereof” (Centre National De La Recherche Scientifique, priority 2012, dated 2016).
